B1: VHH52-GFP (control nanobody elicited against the influenza nucleoprotein, fused to GFP) (VHH)
VHH: QVQLQESGGGLVQAGGSLRLTCALSERTSTSYAQGWFRQPPGKEREFVASLRTHDGNTHYTDSVKGRFTISRDNAENTLYLQMNSLKTEDTAVYYCAASLGYSGAYASGYDYWGQGTQVTVSS

Target: HIV-1 precursor Gag (PrGag) protein (HIV-1) (UniProt P04591)
Assay: dual fluorescence microscopy of virus-like particles

Molecule | percent of CA positive particles that were also GFP positive [%]
EGFP-Vpr (from UniProt P12520 1-96) (natural protein) | 39.1
B1 | 0.1
